T1: Biotinyl-EACA-EACA-Gly-Leu-Met-Val-Gly-Gly-Val-Val-Arg-OH
T1 chain: GLMVGGVVR


Target: T1, Biotinyl-EACA-EACA-Gly-Leu-Met-Val-Gly-G …

Protein | Km | Km (37° C.) | Km (room temperature)
activated thrombin-activatable fibrinolysis inhibitor (human TAFIa) (protein) ASASYYEQYHSLNEIYSWIEFITERHPDMLTKIHIGSSFEKYPLYVLKVSGKEQAAKNAIWIDCGIHAREWISPAFCLWFIGHITQFYGIIGQYTNLLRLVDFYVMPVVNVDGYDYSWKKNRMWRKNRSFYANNHCIGTDLNRNFASKHWCEEGASSSSCSETYCGLYPESEPEVKAVASFLRRNINQIKAYISMHSYSQHIVFPYSYTRSKSKDHEELSLVASEAVRAIEKISKNTRYTHGHGSETLYLAPGGGDDWIYDLGIKYSFTIELRDTGTYGFLLPERYIKPTCREAFAAVSKIAWHVIRNV | Values of Km for TAFIa and CPB were 8 and 12 µM, respectively |  | 
human carboxypeptidase B (protein) ATGHSYEKYNKWETIEAWTQQVATENPALISRSVIGTTFEGRAIYLLKVGKAGQNKPAIFMDCGFHAREWISPAFCQWFVREAVRTYGREIQVTELLDKLDFYVLPVLNIDGYIYTWTKSRFWRKTRSTHTGSSCIGTDPNRNFDAGWCEIGASRNPCDETYCGPAAESEKETKALADFIRNKLSSIKAYLTIHSYSQMMIYPYSYAYKLGENNAELNALAKATVKELASLHGTKYTYGPGATTIYPAAGGSDDWAYDQGIRYSFTFELRDTGRYGFLLPESQIRATCEETFLAIKYVASYVLEHLY | Values of Km for TAFIa and CPB were 8 and 12 µM, respectively |  | 
human soluble carboxypeptidase M (protein) LDFNYHRQEGMEAFLKTVAQNYSSVTHLHSIGKSVKGRNLWVLVVGRFPKEHRIGIPEFKYVANMHGDETVGRELLLHLIDYLVTSDGKDPEITNLINSTRIHIMPSMNPDGFEAVKKPDCYYSIGRENYNQYDLNRNFPDAFEYNNVSRQPETVAVMKWLKTETFVLSANLHGGALVASYPFDNGVQATGALYSRSLTPDDDVFQYLAHTYASRNPNMKKGDECKNKMNFPNGVTNGYSWYPLQGGMQDYNYIWAQCFEITLELSCCKYPREEKLPSFWNNNKASLIEYIKQVHLGVKGQVFDQNGNPLPNVIVEVQDRKHICPYRTNKYGEYYLLLLPGSYIINVTVPGHDPHITKVIIPEKSQNFSALKKDILLPFQGQLDSIPVSNPSCPMIPLYRNLPDHS |  | the value was much higher (>50 µM) at 37 °C | Km for CPM was 38 µM at room temperature
